Assay [1] deals with DU145 MUC1-positive prostate cancer cells. As to the kind of experiment: RT-PCR of cancer stem cell markers in DU145 cells cultured with agent. It is filed as cell-based, human. The settings on record: after 9-10 passages; FIG. 11b. On the procedure: Example 3: Agents that are able to maintain stem cells in the naïve state transform cancer cells into cancer stem cells wherein only a small number of cells are required for engraftment. Cancer cells were cultured according to standard practice. In the controls, the cancer cells were cultured in their normal media: RPMI for T47D breast cancer cells, DU145 and PC3 prostate cancer cells. However, the test agents, recombinant proteins human NME1 dimers, bacterial HSP593 NME1 dimers, human NME7-AB and 2i, were added to a serum-free minimal media to eliminate potential interference from the many growth factors and cytokines in serum.
To this serum-free minimal media, rhNME1 (aka NM23) was added to a final concentration of 8 nM, or bacterial HSP593 recombinant NME1 was added to a final concentration of 8 nM, or rhNME7-AB was added to a final concentration of 4 nM, or 2i inhibitors, PD0325901 and CHIR99021, which inhibit the MAP kinase pathway and GSK3, respectively, were added to a final concentration of 3 μM and 1 μM.
Example 3b: Prostate cancer cells were also cultured as described above with either human NME1 dimers, bacterial NME1 dimers, NME7-AB, or 2i inhibitors. […] Thus, the RT-PCR measurements of the cancer stem cell markers are lower than that of the T47D cells, which could be explained by it being the measure of transformed cells and non-transformed cells. In the case of breast cancer cells, we were able to isolate the fully transformed cancer stem cells by collecting the floating cells, but were not able to do so here. DU145 MUC1-positive prostate cancer cells were cultured in RPMI media as a control and in minimal media to which was added recombinant human NME1/NM23 dimers, bacterial HSP593 dimers, or human NME7-AB. […] There was about a 2-8-fold increase in OCT4, MUC1 and CDH1/E-cadherin. However, after serial passaging under these same culture conditions, the increases in expression of cancer stem cell markers became more pronounced. We reasoned that serial passaging allowed more time for cells to transform since we could not rapidly collect floating cells.

Assay [2] relates to T47D cancer stem cells. In words: Tumor initiation and metastasis from low numbers of NME7-AB-induced T47D cancer stem cells, with or without daily NME7-AB injections. It is filed as in vivo, nu/nu female mice. On the procedure: T47D breast cancer cells were cultured as described in Example 3a above. After 7-10 days culture in minimal media to which was added rhNME7-AB to a final concentration of 4 nM, floating cells were collected. […] The floating cells were counted and re-suspended in PBS. The NME7-induced cancer stem cells were mixed 1:2 with reduced growth factor Matrigel; that is 2 parts Matrigel to 1 part cells. A range of ratios of cancer cells to NME7 or the injection schedule of NME7 is expected to vary from one mouse strain to another and from one tumor type to another.
The cancer stem cells were implanted in the flank of female nu/nu mice which had previously been implanted with a 90-day release estrogen pellet in the shoulder area. Four (4) groups of six (6) mice each were implanted with either 50, 100, 1,000 or 10,000 T47D cancer stem cells. In each case the total volume injected into each mouse was 100 uL. Half of the mice in each group were injected daily with 200 uL of recombinant human NME7-AB in the flank near but not at the cancer stem cell implantation site.
Animals were monitored for food intake and body weight, which were normal and stable. Two (2) independent and blinded tumor measurements were taken once a week and recorded.

The target in assay [3] is T1, PSMGFR peptide of the MUC1* extracellular domain (Homo sapiens, UniProt P15941).
T1 sequence (P15941 1110-1154 limits assumed): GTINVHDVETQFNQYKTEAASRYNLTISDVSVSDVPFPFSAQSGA
In words: ELISA binding to PSMGFR peptide. The note with it: FIG. 47, FIG. 48b. The source says:
We made recombinant human NM23, also called NME1, dimers that bear the […] mutation that stabilizes dimers. We previously reported that human NME1 dimers bind to the PSMGFR portion of the extracellular domain of the MUC1* receptor (Smagghe et al. 2013). We also made recombinant human NME7-AB that is secreted as a monomer. […] We made recombinant bacterial NME proteins found in Halomonas Sp. 593 (‘HSP 593’) and in Porphyromonas gingivalis W83 that had high sequence homology to human NME1 and had been reported to exist in dimer state (FIG. 48 and FIG. 49). HSP 593 expressed well in E. coli and a significant portion was present as a dimer, which population was then purified by FPLC and confirmed the dimer population (FIG. 48a).
On the technique in general: In an ELISA, binding on a coated surface is turned into a signal by an enzyme label.

The subject of assay [4] is Human HES-3 embryonic stem cells. In words: Human embryonic stem cell culture with NME protein as only growth factor. It is filed as cell-based. The note with it: serum-free minimal base media, agent as the only growth factor or cytokine. The source says: Factors that are able to maintain stem cells in the naive state are also able to transform cells to a cancer-like or stem-like state and are also able to transform cancer cells to a cancer stem cell state or a more metastatic state. Herein, we have shown several examples of bacterial NME1 being able to function like human NME1 dimers, which are also able to function like NME7 or NME7-AB. However, the primary example that these factors function in a very similar way is their ability to promote the growth of stem cells, inhibit differentiation and maintain them in the naive state. […] Human HES-3 embryonic stem cells were cultured in a serum-free minimal base media with either HSP 593, human NME1 or NME7-dimers or human NME7-AB as the only growth factor or cytokine. […] Several examples have been presented here that indicate that contacting cells with an agent or agents that are able to revert stem cells from the primed state to the less mature naive state are also able to revert a wide variety of cell types to a less mature state: somatic cells to stem or progenitor cells or cancer cells to more metastatic state also called cancer stem cell state. Therefore, the invention is not meant to be limited to a specific cell type or a specific cancer cell type.

B1: NME7-AB: recombinant human NME7 variant (A and B domains, SEQ ID NO:39) secreted as a monomer; 'NME7' in the experiments means this protein (protein)
chain: MEKTLALIKPDAISKAGEIIEIINKAGFTITKLKMMMLSRKEALDFHVDHQSRPFFNELIQFITTGPIIAMEILRDDAICEWKRLLGPANSGVARTDASESIRALFGTDGIRNAAHGPDSFASAAREMELFFPSSGGCGPANTAKFTNCTCCIVKPHAVSEGLLGKILMAIRDAGFEISAMQMFNMDRVNVEEFYEVYKGVVTEYHDMVTEMYSGPCVAMEIQQNNATKTFREFCGPADPEIARHLRPGTLRAIFGKTKIQNAVHCTDLPEDGLLEVQYFFKILDN
modifications: Human NME7-AB
notes: 'NME7' in the experiments means this protein
For B1, the “expression of NANOG and OCT4” value in assay [1] was “significant increases”. Moreover, the “increase in the expression of CDH1/E-cadherin” value in assay [1] was 9 fold. In addition, the “mice that developed tumors” value in assay [2] (all 24 mice implanted with 50, 100, 1,000 or 10,000 NME7-induced cancer stem cells) was 67%. For the same molecule, the “number of implanted cells that initiate tumors in mice” value in assay [2] (cancer stem cells generated by culture in NME7-AB) is on record as no more than 50 cells. Further, in assay [2] (group injected with NME7 daily), the “time after which cancers metastasized” value was “about 50 days”. The “mice that formed tumors” value in assay [2] (implanted with NME7-induced cancer stem cells and receiving daily injections of NME7) is listed as 83%; in assay [2] (implanted with NME7-induced cancer stem cells, no circulating NME7 (no daily injections)) it was 50%. Moreover, in assay [2] (of the daily NME7-injected mice that formed tumors, by approximately Day 50), the “tumor-bearing mice that developed cancer metastasis (multiple tumors)” value is recorded as 80%. In addition, the “binding to PSMGFR portion of the MUC1* extracellular domain” value in assay [3] is “bind to and dimerize”. The “support of human stem cell growth” value in assay [4] is “fully supported human stem cell growth”.

The values are drawn from patent publication US20220193270A1, “METHOD FOR ENHANCING TUMOR GROWTH” (MINERVA BIOTECHNOLOGIES CORPORATION, priority 2013, published 2022).
